Experimental data taken from the supplement of paper PMC10065799, “High-throughput profiling of sequence recognition by tyrosine kinases and SH2 domains using bacterial peptide display” (eLife, 2023).

What was measured:
EPHB1 = EPHB1 (UniProt P54762); assay: phosphorylation enrichment, bacterial display (enrichment ratio); higher = better substrate or ligand; peptides without Tyr show the background
Hck = Hck (UniProt P08631); assay: as above
Jak2 = Jak2 (UniProt O60674); assay: as above
MERTK = MERTK (UniProt Q12866); assay: as above
AncSZ = assay: as above
c-Src = assay: as above
FGFR1 = FGFR1 (UniProt P11362); assay: as above
EPHB2 = EPHB2 (UniProt P29323); assay: as above
FGFR3 = FGFR3 (UniProt P22607); assay: as above
Fer (mouse) = assay: as above
c-Abl (mouse) = assay: as above
Fyn = Fyn (UniProt P06241); assay: as above
Fes = Fes (UniProt P07332); assay: as above
c-Src SH2 = assay: SH2 binding enrichment of the phosphorylated peptide, bacterial display (enrichment ratio); higher = better substrate or ligand; peptides without Tyr show the background
Grb2 SH2 = Grb2 SH2 (UniProt P62993); assay: as above
SHP2-C SH2 = assay: as above
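Throughout, for SH2 binding enrichment of the phosphorylated peptide, bacterial display: peptide library displayed on the E. coli surface as eCPX fusions, selected cells deep-sequenced, score is each peptide's frequency after selection divided by its frequency in the input.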
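Throughout, for phosphorylation enrichment, bacterial display: 11-residue human phosphosite peptides and single-mutation variants displayed on the E. coli surface, counted by deep sequencing, each peptide's frequency after selection divided by its frequency in the unselected input library; frequency after pTyr selection over input frequency; kinase dosed for 20-30% of maximal phosphorylation in three min.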

Chain of Fes (P07332 whole entry, looked up): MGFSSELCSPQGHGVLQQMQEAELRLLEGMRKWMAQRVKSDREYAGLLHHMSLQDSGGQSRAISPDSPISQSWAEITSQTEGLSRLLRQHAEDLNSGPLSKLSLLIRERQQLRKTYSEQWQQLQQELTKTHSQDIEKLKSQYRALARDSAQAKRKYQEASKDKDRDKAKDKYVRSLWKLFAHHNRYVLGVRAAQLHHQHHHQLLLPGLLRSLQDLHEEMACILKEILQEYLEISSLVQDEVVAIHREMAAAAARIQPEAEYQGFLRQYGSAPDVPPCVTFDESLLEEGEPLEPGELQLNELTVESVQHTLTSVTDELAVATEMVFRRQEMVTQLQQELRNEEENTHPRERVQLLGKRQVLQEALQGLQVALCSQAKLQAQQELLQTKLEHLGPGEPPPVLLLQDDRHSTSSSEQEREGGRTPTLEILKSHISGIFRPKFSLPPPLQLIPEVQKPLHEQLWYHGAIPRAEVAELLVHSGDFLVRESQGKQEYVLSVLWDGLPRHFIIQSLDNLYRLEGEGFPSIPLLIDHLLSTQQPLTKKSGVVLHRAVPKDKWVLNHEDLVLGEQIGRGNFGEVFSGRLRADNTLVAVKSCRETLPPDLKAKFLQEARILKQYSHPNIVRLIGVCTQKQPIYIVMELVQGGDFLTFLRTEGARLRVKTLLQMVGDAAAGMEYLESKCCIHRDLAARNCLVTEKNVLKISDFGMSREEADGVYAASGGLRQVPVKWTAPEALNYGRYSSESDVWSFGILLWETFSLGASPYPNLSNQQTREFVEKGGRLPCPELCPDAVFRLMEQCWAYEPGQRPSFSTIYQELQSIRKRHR
Chain of EPHB2 (P29323 whole entry, looked up): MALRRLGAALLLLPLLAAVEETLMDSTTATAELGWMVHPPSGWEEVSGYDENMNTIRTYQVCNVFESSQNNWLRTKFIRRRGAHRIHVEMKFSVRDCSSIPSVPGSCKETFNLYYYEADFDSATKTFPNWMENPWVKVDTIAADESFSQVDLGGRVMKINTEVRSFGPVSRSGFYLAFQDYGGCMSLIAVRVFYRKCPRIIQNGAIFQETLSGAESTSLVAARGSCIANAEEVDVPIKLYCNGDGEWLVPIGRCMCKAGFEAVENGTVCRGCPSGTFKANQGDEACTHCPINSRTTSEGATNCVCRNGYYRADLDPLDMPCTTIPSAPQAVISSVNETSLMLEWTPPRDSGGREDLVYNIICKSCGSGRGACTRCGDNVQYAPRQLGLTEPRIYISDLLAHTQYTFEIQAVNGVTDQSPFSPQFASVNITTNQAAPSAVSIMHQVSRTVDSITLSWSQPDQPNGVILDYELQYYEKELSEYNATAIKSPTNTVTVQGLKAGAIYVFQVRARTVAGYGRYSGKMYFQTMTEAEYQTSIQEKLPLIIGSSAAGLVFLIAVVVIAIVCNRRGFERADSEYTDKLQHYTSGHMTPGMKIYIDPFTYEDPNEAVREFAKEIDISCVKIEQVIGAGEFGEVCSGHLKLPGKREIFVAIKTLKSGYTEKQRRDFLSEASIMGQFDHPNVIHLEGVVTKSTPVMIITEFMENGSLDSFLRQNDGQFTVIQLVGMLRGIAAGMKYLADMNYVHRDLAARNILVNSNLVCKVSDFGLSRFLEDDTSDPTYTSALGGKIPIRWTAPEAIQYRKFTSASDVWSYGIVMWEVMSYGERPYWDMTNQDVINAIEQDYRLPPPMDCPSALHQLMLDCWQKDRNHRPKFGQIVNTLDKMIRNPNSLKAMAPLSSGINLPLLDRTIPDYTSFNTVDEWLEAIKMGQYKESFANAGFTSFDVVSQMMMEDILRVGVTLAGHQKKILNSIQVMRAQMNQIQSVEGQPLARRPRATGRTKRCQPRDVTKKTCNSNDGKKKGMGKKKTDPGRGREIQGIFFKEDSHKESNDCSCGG
Chain of Jak2 (O60674 whole entry, looked up): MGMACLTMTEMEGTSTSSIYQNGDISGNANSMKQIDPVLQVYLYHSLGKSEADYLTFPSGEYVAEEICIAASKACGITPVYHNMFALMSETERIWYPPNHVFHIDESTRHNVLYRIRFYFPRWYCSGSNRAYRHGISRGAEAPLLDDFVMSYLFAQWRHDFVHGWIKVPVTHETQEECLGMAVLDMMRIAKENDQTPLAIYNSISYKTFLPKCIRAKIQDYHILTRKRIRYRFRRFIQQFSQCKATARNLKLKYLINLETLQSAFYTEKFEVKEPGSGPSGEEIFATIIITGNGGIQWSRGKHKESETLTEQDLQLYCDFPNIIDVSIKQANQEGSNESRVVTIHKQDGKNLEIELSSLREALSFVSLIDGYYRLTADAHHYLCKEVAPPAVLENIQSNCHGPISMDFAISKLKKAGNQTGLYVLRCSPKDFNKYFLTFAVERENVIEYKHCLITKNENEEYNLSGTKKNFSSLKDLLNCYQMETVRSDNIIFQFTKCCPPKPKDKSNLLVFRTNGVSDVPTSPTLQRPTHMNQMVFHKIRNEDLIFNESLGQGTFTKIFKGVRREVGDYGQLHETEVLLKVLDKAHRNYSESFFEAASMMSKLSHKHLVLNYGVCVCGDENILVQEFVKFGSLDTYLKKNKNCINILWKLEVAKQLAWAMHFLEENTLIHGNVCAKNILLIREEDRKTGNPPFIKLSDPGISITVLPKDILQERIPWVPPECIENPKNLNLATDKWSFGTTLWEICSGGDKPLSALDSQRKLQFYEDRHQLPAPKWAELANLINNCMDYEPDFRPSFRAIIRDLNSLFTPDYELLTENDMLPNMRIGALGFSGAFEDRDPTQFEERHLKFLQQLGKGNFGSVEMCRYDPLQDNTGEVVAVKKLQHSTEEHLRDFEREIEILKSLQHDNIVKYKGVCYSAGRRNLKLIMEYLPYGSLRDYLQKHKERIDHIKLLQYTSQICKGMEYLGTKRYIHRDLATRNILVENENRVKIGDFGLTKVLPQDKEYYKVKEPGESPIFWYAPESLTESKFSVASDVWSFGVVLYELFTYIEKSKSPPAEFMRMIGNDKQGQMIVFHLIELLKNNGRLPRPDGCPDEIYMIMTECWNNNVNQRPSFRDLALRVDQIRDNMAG
Chain of Fyn (P06241 whole entry, looked up): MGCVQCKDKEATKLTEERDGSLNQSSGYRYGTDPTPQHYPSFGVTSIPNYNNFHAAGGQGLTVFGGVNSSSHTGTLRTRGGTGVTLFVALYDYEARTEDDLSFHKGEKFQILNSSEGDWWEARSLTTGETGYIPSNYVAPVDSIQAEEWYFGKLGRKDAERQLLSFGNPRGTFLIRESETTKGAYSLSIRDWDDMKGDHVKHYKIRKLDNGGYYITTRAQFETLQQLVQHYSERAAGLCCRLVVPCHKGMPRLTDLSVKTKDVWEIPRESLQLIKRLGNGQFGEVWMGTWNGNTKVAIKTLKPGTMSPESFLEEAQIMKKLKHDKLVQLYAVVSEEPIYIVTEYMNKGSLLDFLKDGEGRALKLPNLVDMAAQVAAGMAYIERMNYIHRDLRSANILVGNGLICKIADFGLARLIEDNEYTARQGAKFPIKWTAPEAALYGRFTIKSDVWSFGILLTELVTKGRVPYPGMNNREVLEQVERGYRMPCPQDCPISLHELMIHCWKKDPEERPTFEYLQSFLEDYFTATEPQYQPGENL
Chain of Grb2 SH2 (P62993 whole entry, looked up): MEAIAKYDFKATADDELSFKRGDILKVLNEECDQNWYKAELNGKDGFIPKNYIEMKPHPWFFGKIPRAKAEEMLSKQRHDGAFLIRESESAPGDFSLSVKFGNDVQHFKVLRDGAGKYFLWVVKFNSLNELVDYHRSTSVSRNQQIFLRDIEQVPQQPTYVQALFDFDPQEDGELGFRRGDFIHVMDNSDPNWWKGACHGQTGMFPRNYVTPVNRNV
Chain of MERTK (Q12866 whole entry, looked up): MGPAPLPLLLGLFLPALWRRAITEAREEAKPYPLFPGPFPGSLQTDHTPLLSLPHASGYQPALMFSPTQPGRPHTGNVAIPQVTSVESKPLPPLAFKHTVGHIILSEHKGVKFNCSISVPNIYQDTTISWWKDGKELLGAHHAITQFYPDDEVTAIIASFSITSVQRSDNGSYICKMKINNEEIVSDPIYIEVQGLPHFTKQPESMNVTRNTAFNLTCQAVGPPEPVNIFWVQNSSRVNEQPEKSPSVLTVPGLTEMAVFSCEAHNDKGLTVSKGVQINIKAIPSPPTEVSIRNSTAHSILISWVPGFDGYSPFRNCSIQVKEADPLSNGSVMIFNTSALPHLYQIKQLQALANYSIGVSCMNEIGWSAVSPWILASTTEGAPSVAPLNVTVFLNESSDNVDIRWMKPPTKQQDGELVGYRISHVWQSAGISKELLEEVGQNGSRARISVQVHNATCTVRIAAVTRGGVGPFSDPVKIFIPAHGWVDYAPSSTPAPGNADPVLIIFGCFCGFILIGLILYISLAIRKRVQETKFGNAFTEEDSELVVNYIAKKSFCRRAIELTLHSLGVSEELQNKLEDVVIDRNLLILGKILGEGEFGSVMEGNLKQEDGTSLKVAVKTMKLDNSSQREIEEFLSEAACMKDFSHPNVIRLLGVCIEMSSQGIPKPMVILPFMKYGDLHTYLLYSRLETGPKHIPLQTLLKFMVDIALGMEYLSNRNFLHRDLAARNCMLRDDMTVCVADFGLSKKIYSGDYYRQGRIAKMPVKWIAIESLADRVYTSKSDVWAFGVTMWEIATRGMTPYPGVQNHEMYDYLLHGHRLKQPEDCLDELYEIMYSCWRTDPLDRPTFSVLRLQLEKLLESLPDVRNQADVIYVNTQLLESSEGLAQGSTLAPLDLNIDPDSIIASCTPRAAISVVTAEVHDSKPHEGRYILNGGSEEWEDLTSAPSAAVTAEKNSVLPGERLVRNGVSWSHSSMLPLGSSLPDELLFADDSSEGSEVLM

| Sequence | phosphorylation enrichment (EPHB1) | phosphorylation enrichment (Hck) | phosphorylation enrichment (Jak2) | phosphorylation enrichment (MERTK) | phosphorylation enrichment (AncSZ) | phosphorylation enrichment (c-Src) | phosphorylation enrichment (FGFR1) | phosphorylation enrichment (EPHB2) | phosphorylation enrichment (FGFR3) | phosphorylation enrichment (Fer (mouse)) | phosphorylation enrichment (c-Abl (mouse)) | phosphorylation enrichment (Fyn) | phosphorylation enrichment (Fes) | SH2 binding enrichment (c-Src SH2) | SH2 binding enrichment (Grb2 SH2) | SH2 binding enrichment (SHP2-C SH2) |
| --- | --- | --- | --- | --- | --- | --- | --- | --- | --- | --- | --- | --- | --- | --- | --- | --- |
| GGSDCYGSLRP [MYLK_Y846_R845C] | 0.466 | 3.08 | 0.792 | 0.429 | 0.703 | 2.75 | 0.351 | 0.508 | 0.566 | 0.558 | 0.746 | 2.79 | 0.887 | 0.36 | 0.694 | 0.608 |
| LSSLAYSGKDA [FXN_Y205] | 0.819 | 0.579 | 0.75 | 0.307 | 0.859 | 0.47 | 0.66 | 0.702 | 0.671 | 0.615 | 0.85 | 0.809 | 0.703 | 0.59 | 0.683 | 0.885 |
| GFEEAYSVFKK [PAFAH1B1_Y28_YF] | 0.339 | 2.51 | 0.514 | 0.544 | 0.803 | 3.97 | 0.423 | 0.379 | 0.412 | 0.365 | 0.756 | 1.29 | 0.696 | 0.605 | 1.03 | 1.76 |
| SDGKRYRVPSD [HHIPL2_Y395_H391D] | 0.357 | 0.346 | 0.771 | 0.409 | 0.555 | 0.384 | 0.377 | 0.303 | 0.426 | 0.408 | 0.44 | 0.338 | 0.522 | 0.57 | 0.781 | 0.608 |
| VLTSKYRGGGG [HBA1_Y141] | 0.475 | 0.563 | 0.454 | 0.556 | 0.386 | 0.435 | 0.332 | 0.278 | 0.468 | 0.374 | 0.494 | 0.366 | 0.911 | 0.524 | 1.39 | 0.841 |
| VDTFWYKFLKP [EPM2A_Y86_R91P] | 0.644 | 0.426 | 1.05 | 0.471 | 0.982 | 0.43 | 0.463 | 0.533 | 0.808 | 0.515 | 0.694 | 0.388 | 1.28 | 0.388 | 0.601 | 0.626 |
| VFPATYHPDHW [EFCAB12_Y544_YF] | 0.678 | 0.421 | 0.629 | 0.385 | 0.677 | 0.458 | 0.467 | 0.383 | 0.542 | 0.347 | 0.604 | 0.469 | 0.792 | 0.519 | 1.04 | 0.722 |
| ATATDYHTTSH [SLC4A1_Y46] | 0.31 | 0.397 | 0.387 | 0.438 | 0.473 | 0.334 | 0.408 | 0.348 | 0.434 | 0.328 | 0.416 | 0.294 | 0.482 | 0.642 | 0.872 | 0.661 |
| YLELNYKEDEY [MME_Y502] | 0.786 | 1.21 | 1.3 | 0.923 | 1.78 | 0.88 | 4.36 | 0.478 | 3.65 | 0.55 | 0.929 | 0.63 | 1.43 | 4.38 | 0.802 | 0.71 |
| SETSRYLSDLF [KCNJ3_Y67] | 0.726 | 0.515 | 1.17 | 0.485 | 0.963 | 0.549 | 0.544 | 0.562 | 0.627 | 0.555 | 0.844 | 0.504 | 1.21 | 0.543 | 0.942 | 0.989 |
| FASTGYGIAIQ [GRIN2B_Y762] | 0.575 | 0.484 | 0.605 | 0.408 | 0.655 | 0.408 | 0.557 | 0.456 | 0.55 | 0.375 | 0.739 | 0.499 | 0.92 | 0.452 | 0.721 | 0.647 |
| LERYIYNRQEF [HLA-DPB1_Y59_E62Q] | 0.475 | 1.32 | 0.449 | 0.413 | 1.05 | 1.24 | 0.624 | 0.856 | 0.605 | 0.772 | 0.415 | 0.819 | 1.01 | 0.477 | 0.812 | 0.703 |
| SAGSSYSISVI [PAX5_Y179_G183V] | 0.553 | 0.539 | 0.835 | 0.472 | 0.986 | 0.48 | 0.485 | 0.712 | 0.752 | 0.572 | 0.807 | 0.688 | 0.975 | 0.62 | 0.856 | 0.686 |
| PVQAPYQKVVA [HBB_Y131_A130P] | 0.543 | 0.687 | 0.687 | 0.691 | 0.744 | 0.563 | 0.436 | 0.691 | 0.429 | 0.381 | 0.732 | 0.539 | 0.94 | 0.561 | 0.8 | 1.3 |
| CGPLLYGLVHQ [PRKCG_Y122_S119P] | 2.72 | 4.88 | 1.06 | 4.98 | 0.884 | 4.08 | 0.593 | 4.12 | 0.723 | 8.22 | 0.73 | 3.72 | 1.16 | 0.517 | 0.815 | 0.881 |
| HKLSFNEFDFE [BTK_Y40_Y40N_YF] | 0.829 | 0.918 | 1.53 | 0.712 | 1.61 | 0.864 | 0.795 | 0.859 | 0.882 | 0.788 | 1.02 | 0.834 | 1.58 | 0.471 | 0.789 | 0.456 |
| NACGLYFKLHN [GATA2_Y376_YF] | 0.552 | 0.491 | 1.21 | 0.466 | 1.26 | 0.358 | 0.437 | 0.496 | 0.722 | 0.425 | 0.784 | 0.427 | 0.979 | 0.449 | 0.899 | 0.686 |

| Sequence | phosphorylation enrichment (EPHB1) | phosphorylation enrichment (Hck) | phosphorylation enrichment (Jak2) | phosphorylation enrichment (MERTK) | phosphorylation enrichment (AncSZ) | phosphorylation enrichment (c-Src) | phosphorylation enrichment (FGFR1) | phosphorylation enrichment (EPHB2) | phosphorylation enrichment (FGFR3) | phosphorylation enrichment (Fer (mouse)) | phosphorylation enrichment (c-Abl (mouse)) | phosphorylation enrichment (Fyn) | phosphorylation enrichment (Fes) | SH2 binding enrichment (c-Src SH2) | SH2 binding enrichment (Grb2 SH2) | SH2 binding enrichment (SHP2-C SH2) |
| --- | --- | --- | --- | --- | --- | --- | --- | --- | --- | --- | --- | --- | --- | --- | --- | --- |
| PSALGYSPSLR [LLGL2_Y40] | 0.769 | 0.472 | 0.908 | 0.712 | 0.669 | 0.692 | 0.404 | 0.628 | 0.46 | 0.512 | 0.764 | 0.75 | 0.887 | 0.493 | 0.958 | 1.04 |
| GLSSAYGDLTS [KRT8_Y427_G429D] | 0.56 | 0.535 | 0.535 | 0.413 | 0.718 | 0.464 | 0.506 | 0.429 | 0.486 | 0.479 | 0.536 | 0.454 | 0.659 | 0.608 | 0.878 | 0.655 |
| ENRKYYKDLKE [PURA_Y156_M157K] | 0.34 | 0.295 | 0.772 | 0.34 | 0.55 | 0.352 | 0.359 | 0.298 | 0.457 | 0.318 | 0.549 | 0.359 | 0.766 | 0.592 | 0.713 | 0.574 |
| PVGVLYKVKVY [PTS_Y128] | 1.06 | 0.687 | 1.52 | 0.669 | 1.28 | 0.451 | 0.337 | 0.877 | 1.27 | 0.699 | 0.914 | 0.652 | 1.79 | 0.398 | 0.73 | 0.584 |
| AHADEYGAEAL [HBA1_Y25_G23D] | 0.538 | 0.511 | 0.96 | 0.536 | 0.97 | 0.46 | 0.398 | 0.403 | 0.564 | 0.412 | 0.791 | 0.458 | 1.1 | 0.393 | 0.781 | 0.66 |
| PLDGEYFTRQI [TP53_Y327_L330R] | 0.441 | 0.686 | 0.637 | 0.54 | 1.09 | 0.841 | 0.387 | 0.435 | 0.651 | 0.291 | 1.2 | 0.547 | 1.01 | 0.675 | 0.692 | 0.836 |
| YETVKYFNNER [ABCB7_Y345] | 0.792 | 1.83 | 0.683 | 0.844 | 0.881 | 1.14 | 1.95 | 0.611 | 1.32 | 9.57 | 0.64 | 1.37 | 0.869 | 9.64 | 0.868 | 1.13 |
| EQKKFYNAMKK [SCN5A_Y1495_YF] | 0.299 | 0.367 | 0.569 | 0.379 | 0.484 | 0.373 | 0.394 | 0.317 | 0.339 | 0.34 | 0.52 | 0.325 | 0.576 | 0.859 | 1.06 | 0.955 |
| VVLVSYVPFSQ [SH2B1_Y624_S627F] | 0.716 | 0.648 | 1.38 | 0.496 | 1.29 | 0.833 | 0.526 | 0.702 | 0.771 | 0.501 | 0.938 | 0.55 | 1.37 | 0.906 | 1.28 | 1.03 |
| LFEDRYLLGPS [ASS1_Y87_T91P_YF] | 0.857 | 0.804 | 1.73 | 0.58 | 1.07 | 0.689 | 0.679 | 0.872 | 1.12 | 0.634 | 1.07 | 0.793 | 1.42 | 0.552 | 0.965 | 0.515 |
| RRIHSYRGRLW [VHL_Y112_H115R] | 0.865 | 0.754 | 0.68 | 0.538 | 0.956 | 0.7 | 0.733 | 0.641 | 0.811 | 0.637 | 0.836 | 0.547 | 0.771 | 0.372 | 0.967 | 0.561 |
| VDTRAYLTSAT [MT-CO1_Y304_F305L] | 0.589 | 0.377 | 0.603 | 0.393 | 0.671 | 0.414 | 0.518 | 0.438 | 0.723 | 0.488 | 0.637 | 0.436 | 0.763 | 0.439 | 0.774 | 0.569 |
| PGDGEYFTLQI [TP53_Y327_L323G] | 0.895 | 1.95 | 4.13 | 0.705 | 2.91 | 4.02 | 10.5 | 0.892 | 7.71 | 0.651 | 1.75 | 3.54 | 1.57 | 0.275 | 0.895 | 0.677 |
| IIQRAYRGHLL [SCN1A_Y1926_R1928G] | 0.38 | 0.428 | 0.555 | 0.47 | 0.483 | 0.432 | 0.447 | 0.327 | 0.628 | 0.387 | 0.437 | 0.429 | 0.671 | 0.5 | 0.758 | 0.559 |
| FDNPVCQKTTE [LDLR_Y828_Y828C] | 0.485 | 0.603 | 0.875 | 0.477 | 1.1 | 0.523 | 0.57 | 0.653 | 0.774 | 0.528 | 0.877 | 0.573 | 1.18 | 0.563 | 0.969 | 0.812 |
| HEGKIYEFNQV [ZNF665_Y162_YF] | 0.883 | 1.64 | 0.468 | 4.13 | 0.796 | 4.38 | 0.665 | 1.17 | 0.929 | 22.6 | 1.6 | 6.98 | 0.975 | 0.371 | 0.82 | 0.633 |
